For 13 sequences, protein production results are on record in a protein production outcome set (Wang et al. 2014).

A short description of the data set: label from the status in PepcDB records.

For the sequence “MNSLPRPDIGPFADTPEKRWVGVSFGAAAVGYDGVAALQREVGESLLAGIRHLGPPPARMLDLGAGTGHFSGLLVAAFPTAECLALDIAEGMLRFLRSHRPGADGMGLVVGDAEALPLADESVDLIFSNMAFQWCERLDRAISECCRVLRPGGRLAFSTFGEATLAELRMAWRAVDGYTHVNAFATRRSVEQELRAQGFTKIRLDARTLRRGYPSVLALMKELKALGARNLTRNRPRHLLSRHTLERVSEAYGRLPGMASAVTASFEVLTALVEK”, the protein production entry was “failed”.
To “MNSLSVIKPNNAMPMTAEYRQSIRTALKTSLYPGASDTSVDMVLAYCQAADLDPMTKPVHIVPMWIPEKKVDGRVMSSAGMRDVIMPGIELYRTKAHRTGEYAGQDEAVFGDTVCETLGGVQIRYPSWCRIAVYRMVAGERVRFAATVYWLEAYATARKDSPAPNSMWQKRPFGQLEKCAEALALRKAFPEAVGAQPTAEEMDAGRHTIEGETIHVAPIPVNKDIRDISGPYPQEEFEKNFPKWCDLIESGKTTADRIITMLHSKGKGQLSLEQLTAIRACAEDTSAEPVPTDNTPQESNTTDTEENT” belongs “not failed”.
As to “MNSNIYAVIVTYNPELKNLNALITELKEQNCYVVVVDNRTNFTLKDKLADIEKVHLICLGRNEGIAKAQNIGIRYSLEKGAEKIIFFDQDSRIRNEFIKKLSCYMDNENAKIAGPVFIDRDKSHYYPICNIKKNGLREKIHVTEGQTPFKSSVTISSGTMVSKEVFEIVGMMDEELFIDYVDTEWCLRCLNYGILVHIIPDIEMVHAIGDKSVKICGINIPIHSPVRRYYRVRNAFLLLRKNHVPLLLSIREVVFSLIHTTLIIATQKNKIEYMKKHILATLDGIRGITGGGRYNA”, the protein production entry is “failed”.
To “MNSNPFVSVVMSVYNGGEFLKDAINSILSQSYKNFEFIIINDGSSDNFSEILELYDDERIKVLNNQENKGLVYSLNRGLLESIGKYIVRMDADDISLPNRIEKQVEFMEREPEVGVCGSYIEIFGDTIKRKVQRFPSNVNVNEAFLLFSTCLAHPSVIIRKSIVDKYKLRYDDRYLHAEDYAIWCQAVKYTKISNIREVLLKYRILESSVTRQANKNFQSRFDVHKSIYKDIFRNKGIDYTEKELYLHFIISDNNRFRNQALTIRPSEINAHLTKILSHYRGASNYKYIAFLVNKRGLSLSRWYSESRGFYFIMYLFKFLYYKIQIKKLEHHHHHH” belongs “failed”.
For “MNSRMKIKKAYEYMKSFHQHDTTGHDIAHVERVYNNACYIAKRENITDTLVIELSSLLHDTVDSKLTDEILAYDQLKQFLSTLDLSSEISQQVLYIIKHMSYRAGKNNHVKLSIDGEIVRDADRLDAIGAIGIARTFQFSGHFGEPMWTETKLSNEELHTSLVEELDNSAIKHFYEKLFKLKDLMHTPTAKKLAEERHQFMIQYLKQFMSEWNFNKELEHHHHHH” the value was “not failed”; for “MNSTLFSQVENHSVHSNFSEKNAQLLAFENDDCHLPLAMIFTLALAYGAVIILGVSGNLALIIIILKQKEMRNVTNILIVNLSFSDLLVAIMCLPFTFVYTLMDHWVFGEAMCKLNPFVQCVSITVSIFSLVLIAVERHQLIINPRGWRPNNRHAYVGIAVIWVLAVASSLPFLIYQVMTDEPFQNVTLDAYKDKYVCFDQFPSDSHRLSYTTLLLVLQYFGPLCFIFICYFKIYIRLKRRNNMMDKMRDNKYRSSETKRINIMLLSIVVAFAVCWLPLTIFNTVFDWNHQIIATCNHNLLFLLCHLTAMISTCVNPIFYGFLNKNFQRDLQFFFNFCDFRSRDDDYETIAMSTMHTDVSKTSLKQASPVAFKKINNNDDNEKI”, “failed”.
For “MNSYDFITALVPIILIIIGLGIIKKPAYYVIPISLIATVAIVIFYKNLGIVNTSLAMLEGALMGIWPIATVIIAAIFTYKMSEDQKDIETIKNILSNVSSDRRIIVLLVAWGFGNFLEGVAGYGTAVAIPVSILIAMGFEPFFACLICLIMNTSSTAYGSVGIPITSLAQATNLDVNIVSSEIAFQLILPTLTIPFVLVILTGGGIKGLKGVFLLTLLSGMSMAISQVFISKTLGPELPAILGSILSMTITIVYARFFGNKETTERQSKNTISLSKGIIACSPYILIVTFIVLVSPLFNKIHEYLKTFQSTISIYPEANPLHFKWIISPGFLIILATTISYSIRGVPMLKQLKIFTLTLKKMALSSFIIICIVAISRLMTHSGMIRDLANGISIITGKFGPLFSPLIGAIGTFLTGSDTVSNVLFGPLQTQMAENIGANPYWLAAANTTGATGGKMISPQNITIATTTAGLIGQEGKLLSKTIIYALYYILATGLLVYLV” the value was “failed”; for “MNTDLTLVIMAAGLGSRFGGDKQLASLGPSGEPMLVLSILSAIRSGFQRAVLVIRPELEAELTGILTQFLPANFEYHFCYQSLSDLPQDAKLADLSHRLKPWGTAHALWCARDWVKGPMAVINADDFYGDSAFASLAKGLTARPNDWMMVAYPIELTLSEHGGVNRGLCQVAQGQLRSVAEWLNIQAQDDGFVGEGPNGLAKLPLQSLVSMTCWGFSPSIFNVIKQQLTAFIEQQGQLPKSECYLPAVVQAAIEQGVPVYVDVASEPWLGVTYPQDTVWVKQKLMELLGDKTHLEHHHHHH”, “failed”.
For “MNTHLKQLIEISHLDKEIDSLEPLIREKRKDLDKALNDKEAKNKAILNLEEEKLALKLQVSKNEQTLQDTNTKIASIQKKMSEIKSERELRSLNIEEDIAKERSNQANREIENLQNEIKHKSEKQEDLKKEMLELEKLVQQLESLVENEVKNIKETQQIIFKKKEELVEKTEPKIYSFYERIRRWAKNTSIVTIKKQACGGCFIRLNDKIYTEVLTSGDMITCPYCGRILYAEG”, the protein production entry is given as “failed”.
For “MNTHQNRYSVQSKVSALINCRLFQSFITTVIVLNAISIGLETYAFFKPYQKVFFIVDCLFLTIFVIELSLKLFVQKQHFFKNNWNVFDFVIVAGSLILYNTNFVSVLRIFRVLRVLRTITSVPSLRRIVNALFMAIPTISSVIILMSIIFYVYAVIGTMFFSAIAPEYFGNLQLSLLTLFQTFTLESWASGIFRPIFAESGWSWLYFVSFIVIATFIMINLIVGEIVNNAQKISQEIEDETGELKEDTKEIKELRAEVKELKALLQTYITQNEKKD” the value was “failed”; for “MNTLIASLEKVILPFAVKIGKQPHVNAIKNGFIRLMPLTLTGAMFVLINNVFLSFGEGSFFYSLGVRLDASTIETLNSLKSIGGSVYNGTLGIMSLMTPFFISMALAEERKVDPLASALLAVAAFMTVTPFNVGEAYAVGANWLGGANIISGMVIGLAVAEMFAFIVRRNWVISLPDSVPASVSRSFSALIPGFIILSIMGLVAFALAHWGTNFHQIIMDGISAPLAKMGSVVGWVYVLFSSLLWFFGVHGSMALAALDSGIMTPFALENVELYNKYGSVEAAVAAGKEFHMWAKPFVDSYIYLGGTGSTLGLIIAIFIASRREDYRQVAKLATPSGIFQINEPILFGLPVIMNPVMFIPFILVQPVLTIITSLAYYSGLIPPITNIAPWTMPVGLGAFFNTNGSIMAMLLSLFNLAVATVIYLPFVAISNKAQSQIDAATESEEDIAKALKF”, “failed”; for “MNTLYTLFATCPRGLETVLSQELGSLGCTDVQAFDGGVSCRGGLEQAYAANLHSRTAGRILLRLTKGTYRTERDIYKLAKNINWFNWFTLQQTFKVKIEAKRANVKSLQFAGLTVKDAVCDAFRDIYDARPSVDKAAPDVRIHAFLDERNVEIFIDTSGEALFKRGYRLDTGEAPLRENLAAGLLLSAGYDGTQPFQDPFCGSGTIAIEAAWIAAGRAPGMMRRFGFEKLQNFDKTLWADLRRRAEAQTRPVRAPIAGSDNGRRIVQTALDNAHNAGADDIVSFSVAGAQSVRPNGENGIMVSNPPYGVRLEEVRALQALYPQLGTWLKKHYAGWRVGMFTGDREMPKFMRLLPKRKIPLYNGNIDCRLFLIDMVQGSNR”, “not failed”.
For “MNTPLRRVAIAVMVMVVALLANATYVQVIKADNLRADPRNSRVLLDEYSRQRGQISAAGQVLAASVPTDDRYKYLRTYPPNPAAPSSPLANAPVTGFYSMQYGSTGLERSEDPVLNGSDNRLFGRRFFDLVSGRDPRGGNVVTTINPVMQQVAYDQLTAKGYTGSVVAIEPSTGRILTMVSTPSYDPNSLASHDGTETTQAWEALNADPEKPLINRAVSQTYPPGSTFKVVVTAAALAAGTTPDTQLTAAPQITLPGTSTTLENYNGSTCGGAPTASLREAFARSCNTAFVELGVKTGTDAVSDQSSALGIGGQMPGVPFPVADSTIGSIPDDAALGQSSIGQRDVALTPLQNAMIAATVANGGVRMQPQLVSELQGPDLSNLATTNPVSEGQAMSSQVAATLTDLMIGSENNTSGEGKIPGVQIASKTGTAEHGTDPRNTPPHAWYIGFAPAQNPTVAIAVIVEDGGDRALAATGGSVAAPIGRAVIAAGLQGG” the value was “failed”.
